Data reported in the DeepSol protein solubility set.

Test: soluble on expression in E. coli; label from the status in PepcDB or PDB records

Sequence | soluble on expression in E. coli
MNPVLKSSKLVIFDLDGTLYEGTDHFDYYANHLKQNVPQSQQLDFWRDYTAMKDGHHPVQIGKGYDVKRDYILTIDPMTISVQSVQTWDGSYVPAEEWETLYSDPVSFDFETIIAVGDGWWYPFVTAKHYGVEDCYASYVATKEYMVTDEFELTPLPGLREGLIELKATKEIVLVTNSDREDVQRLLHELHLHDVFNHIITSAKKPTRTTDIFKEVVHQYEVDMSQVVSVGDNFMNEIAQALTLGMQGIYIHPQRASEVAHDHLTVIRSVVELFKNLEHHHHHH | soluble
MGSSHHHHHHGKTIFVIVPTNEEQVAFLEALAKQDELNFDWQNPPTEPGQPVVILIPSDMVEWFLEMLKAKGIPFTVYVEEGGSENLYFQGGGGGGLSLPAFSPHCHSLRLGFHVFRKQRARTKTAAVAEQRGLRWTHTTARTAKSGWPPRGHTDTHTHTHTHTHITWEYASSGMTLVFEARRLPFGSISEVYAASIQPIVALHALDKLPLWDRCMLVAVLPVVQQRHSASAAAAPPSTVVRPSLTRNDSDNADAAAASLSSATVRAANHEERVNASPELAGAPSLEDVALALTIVRALDELEVVYDSSISTRAELEQQQQQQPSLPAASLAEAPRRAFKQPKKTSEELLMEQLLQERFTDTAPYLLESSDEGGENSADAAVDVAMCFTVKGESLGIGSATIFGGHGYHP | not soluble
MGSDKIHHHHHHMAVKRAYYGNDGDRDYFERVFQSANINFLIGSGASLPAINVLGTIENDLQQLINDEKEDEYFNMAAGFLSAVWLPHEYILDRGNDVAFPPPVISNVDYTRKNYDAFISSLEKILTRRRTGLLPRRINVFTTNYDLFIEEAATRNNNILFNDGFNKRMNVWGDEEFDAGSFNYSVSATGNLYNYKVELPTVNLIKLHGSFSWKHYKGRIIYNIGEKKPLNFATPAEMKKWVLAHALILPRKEKFKETLLQNVYYDLLRTYSNELDKEATLLVVFGFSFADEHLEMLTKKALRNATLKLLIFAFNEASVGGFMENFRDYSNVEIIYRPGGNVDFPVMNNIITCYLGGAR | not soluble
MSLSRPLLFALTALSLTAASLAHAADKKAADKPAPSAVSKADKALHDKFLTLDTHLDTPAHFGRPGWDIADHHEVEHDFSQVDLPRMNQGGLDGGFFVVYIGQGELTEKGYTYARDYALHRTIEIREMLAANPDTFEMALTSDDARRIAKAGKKFAFVSMENSWPVGEDLSLVETFYKEGLRMAGPVHFRNNQLADSSTDPKGKIWNGYSPLGLRWLAEANRLGIVIDVSHASDDVVDQSVALSKAPIIASHSGPKAVYDHPRNLDDARLKKIADAGGAICINSIYLTDTTPSPERKAALEALGRAPDMKTATPEAVKAYADKRAAIDKAHPAARGDFDLYMKSMLHVLKVAGPKGVCVGADWDGGGGMDGFEDITDLPKITARLKAEGYSDADIEAIWSGNVLRIVDAAQAYAKSVTKEGHHHHHH | soluble
MTEVVLHIYDVTNSGSEKTNNTIVQINRFFKDGIGLGGIFHSAIQVYGNDEWSYGYCELGTGVFSCPSGKNPMYTYREKIVLGKTDCTIFMVNQMLRELSREWPGHTYDLLSKNCNHFCDVLCDRLGVPKIPGWVNRFANAGDTALEVAGNTAMRMKQAKTELVSASKVAYRFLSNVTSNVTNGSNGSPQRPGTLNNSDSGNLRLQGSWLKGLLNTAKPSTSTEIGNKDEDANHAVTNQKKQSRDSDVLLFQ | not soluble
MAHHHHHHMITDLLFKSQIIYNKKDILCARYILFYQHICKRGYKEAAPKVFNKKSSHTSRWIQRQISDRYVLRAKNDNYRSRAAYKLIELDNKYLFLKKNKIILDIGCYPGSWCQVILERTKNYKNKIIGIDKKIMDPIPNVYFIQGEIGKDNMNNIKNINYIDNMNNNSVDYKLKEILQDKKIDIILSDAAVPCIGNKIDDHLNSCELTLSITHFMEQYINIGGTYIVKMYLGSQTNNLKTYLKGMFQLVHTTKPKASRNESREIYLVCKNFLGRKKITEDVQIKGSFSSKEGYY | not soluble
MGSDKIHHHHHHKLFAAHGVDKVRLTGGEPTIRKDIVHIVEGISSTPGIKEVGITTNGLVLQRFLPQLRDAGLTKINISIDSLDREKFAKMTRRDGFDKVWKAIELARGYYPKVKLNVVVLKHQNENEVVDFVNLTKDRNLDVRFIEFMPFGGNEFKNDNFIGYREMLNLIVDKYGDGVIRLSDSPNDTTKAYKIDGFQGQFGFITSMSDHFCNTCNRLRITADGNL | not soluble
MGSDKIHHHHHHMALSERLSRFLARKGITYQPLETEPVANLDAAVLASGKPQHDFIKATLLIDINGVVMVVHRFDSTLDMDAVHQFTGRRLQPLTARQTSRLFGDCDAGFVPPIGAAWELPVLVDEDVVTAESVIFSGGTDHSLVEMDGRAFRLAQAGARQGHLVIRGQGGEDREALTLEDVADKLQKLYRLPPMPALALRILRLTANTEATAKELAELIEFDPSMTAQIMRYARSALFNYPGQINSVQEAVTRVLGFDRVAHIALGIASVRAFDVPRGGMLGMDNFWRHSLYCAFLCQNLAAYSGRDKGLAYLCGLLHNFGLLLVGHLFPSEFEELNALREINPEASMHSLEQEVFGHSERQDILAVGHGAIGGILHRLWQLPEAVIKAAGMHQHIGYHGEHEEYVQMVQLANAILKERGIGDELNPDDLPALVESLGLRADVLERVQSDMDQVASDLDVLASSLAS | not soluble
MTGIREGEKELSLLGSKTEYRNDYAPEVLEAFTNKHQENDYWVRFNCPEFTSLCPITGQPDFATIYINYIPDVKMVESKSLKLYLFSFRNHGAFHEDCVNIIMKDLIALMQPRYIEVWGDFTPRGGISIVPFCNYGKPGSRYELLAEKRMETHH | not soluble
MGSDKIHHHHHHMENVREILQELMSKRKLDQRFNNVMKSVYSDPEVISFCEEHQDELSKEAIERGAAKLYEFVSERNKIKNNQATFLPGYQPELVLSNHLIDIEYVPTKQTHLLEQERHRKALVKSISMPKLIRHASLEGYYQEPERTDALAKTLAFVNEYLERPQDWHKGLYLTGSFGVGKTYLMGAMGNALADEGYSTTIVHFPSLAVELKNAIGSSNTIQTKIDAIKKAPILVIDDIGADSISSWIRDDVLGVILEYRMQEELPTFFTSNFSMDQLEREHLTVNQRGEAEPLKAKRLMERIKFLSEEVSMTGKNHRQD | not soluble
MKIGIIGATGKAGSRILKEALDRGHEVTAIVRNAAKITEENVKVLEKDVFSLTSNDLQAFDVVVNAFGAPAGHDHLHVDAGNVLIEAMKGAPNTKLVVVGGAGSLFVDEEKTTRVFETPGFPEEYLATAQNQGKNLEILQQTNDITWTFISPSALFALGKRTGSYKAGKDNLLVNAKGDSYVSYEDFAVAALDEIENPKHVNERFTVVSEAELEHHHHHH | soluble
SMAGCVVIVGSGVIGRSWAMLFASGGFQVKLYDIEQQQIRNALENIRKEMKLLEQAGSLKGSLSVEEQLSLISGCPNIQEAVEGAMHIQECVPEDLELKKKIFAQLDSIIDDRVILSSSTSCLMPSKLFAGLVHVKQCIVAHPVNPPYYIPLVELVPHPETAPTTVDRTHALMKKIGQCPMRVQKEVAGFVLNRLQYAIISEAWRLVEEGIVSPSDLDLVMSEGLGMRYAFIGPLETMHLNAEGMLSYCDRYSEGIKHVLQTFGPIPEFSRATAEKVNQDMCMKVPDDPEHLAARRQWRDECLMRLAKLKSQV | soluble
FLHAIIPVHRPLRVGVLTQPVHAEISVADPMLAAVDAAASALSQAGHQLVEVQRPYGDAPFAAFSDILALRSAKIHGQASPLVSWLRDRGGRIGGRRKAKAIAEFLSVRAQLLAAWDVD | not soluble
MSELSQLSPQPLWDIFAKICSIPHPSYHEEQLAEYIVGWAKEKGFHVERDQVGNILIRQPATAGMENRKPVVLQAHLDMVPQKNNDTVHDFTKDPIQPYIDGEWVKARGTTLGADNGIGMASALAVLADENVVHGPLEVLLTMTEEAGMDGAFGLQSNWLQADILINTDSEEEGEIYMGCAGGIDFTSNLHLDREAVPAGFETFKLTLKGLKGGHSGGEIHVGLGNANKLLVRFLAGHAEELDLRLIDFNGGTLRNAIPREAFATIAVAADKVDALKSLVNTYQEILKNELAEKEKNLALLLDSVANDKAALIAKSRDTFIRLLNATPNGVIRNSDVAKGVVETSLNVGVVTMTDNNVEIHCLIRSLIDSGKDYVVSMLDSLGKLAGAKTEAKGAYPGWQPDANSPVMHLVRETYQRLFNKTPNIQIIHAGLECGLFKKPYPEMDMVSIGPTITGPHSPDEQVHIESVGHYWTLLTELLKEIPAK | not soluble
MGSDKIHHHHHHLDFRLLRYFVAVAEELHLARAAERLGIEQSPVSRAMRDLESQLGVQLFDRSTRLTRLTWAGQVFLGECRRVMATVEQAVKSAKAAAQGYQGHLRIAICDSLAQPRIATLLARSREEEPELEIRVFELPFAQQLKMLHDDLLDIGFALSNAVHDGLVAEPVWTDPLSVIVPARHPLLAHVQVPLPEALKFPLVLCHPESGSGCRHQIQALLQDAGTPLKLVDEVTSLGVMLTLVGAGYGIGFAIASQVQTLQRPDISIRPLAGTPPMLSTYLLRRRGEPSEPMRRFIERVKDGAAPVDDEPVL | not soluble
MGSDKIHHHHHHATCCAANGEGNCPEGTCRKECTNACNTNNQKNKTMAYSKKYTNADFYKDGKFQQDVAMEAMKDMFAFYDVPFTELMAKDMWVTDFGLGDFENVGMGGIFWINDPEYKYFAHAIYLLPGQMIPEHAHVKTDFPAKHESWMVEKGWVYNFSEVGDETPNAPAIPAGHGPIKSKNFVVQKVGDVLRLKKLETFHFMMAGPEGAIVDEWACYHDNAGLRFTNQKAAL | not soluble
MSLKQFSPDKMLNTPFGITAAQLRKMGKTTILTDLDNTLLAWDQLDATDEVINWFTILKEEGIKVMIFSNNNEERVARVAKAIDVPYLARAKKPLGANFRWALKEMDATPEETVMIGDQIMTDIFGGNRQKLTTIFVRPVKQTDGMATKLNRMMESVILKRLAKKNQIKWEESEGHHHHHH | soluble
MKANTIIAGLLSSTLLATAAYAQTPAPADSTRTMSKSTSASESQHMGQWRASKLIGVNVYNQGNEKLGDISEMLIDSEGRIQGVVIGVGGFLGVGQRDVAVTFDKLQWVNTPVSSNTAMNSQTTPAGSGTSTASPAGTTTGAATSTTAANNADRWYPDHAVLNATKDQLKSMPEFKYSK | not soluble
SLMKITRIEAIPYAIPYSRPLKFASGEVSTAEHVLVRIHTDAGICGVADTPPRPYTYGETQDSIVSVVTKVFAPQLIGMDPMDRSKVQQLLGRTVNNPTAKGALDIALWDVIGISLGTPVHKLLGGFSDSMRVSHMLGFKAAAELLEEALRFRETYGIDTFKLKVGRRPLSLDVEACHVLREGLGADTEIYLDANRGWTANEAMEVLRRTEGLGLSMLEEPCDAAEAMGRRRLVQHSSIPIVGDESVPNLGDVSRELLSGGSNAICIKTARSGFTEAQQILGLCEGLGVDVTMGNQIDTQVGSLATVTFGAAFEASSRRAGELSNYLDMTDDLLAEPLEITDGAIRVRKAPGVGAAIDADKLQKY | not soluble
SLQTLEKSVIGVRVAVEASPVGASRRAREGWRRPASRHEAGALPLPSEQHITFFKLRPGCLDFLRRVSQTFELYMYTMGTALHAATALRILDPKRRFFGRRVFSRQDAVNGLKAIERIFPHDQKMVLVVDDLECMWRYSPCCIKVQGYHYFADVSAADARRISPHSYTQWLSMARPFCNFLPSERIKLCRHVRRCLPSKDA | not soluble
MVFKSKKDKFSEMLMNVSENLKEGAQFFVEYKIKNASDLKEFSMRMKEYESKGDSFIHEIIMELNKAFITPIEREDILQLAMSMDDVLDGLDHSAGLFEMYSITEADEYMIKFVEAINQCAIEIANSVELMSNKKLVDIRTNAIKIKDYESQCDDIRRHAIKNLFSREKDPIKIIQFKEIYEELEEVADSCQSVANVLETIIMKNALEHHHHHH | soluble
